Reference: PMC5849602
Numbering of substitutions follows the chain as printed. In names and notes the source's numbering stands. The star is where a group is joined. AFC = O=c1cc(C(F)(F)F)c2ccc(N*)cc2o1

Legend:
[1] = target: T1, recombinant Casp6-R65W (from full-length Casp6-His) (human) (UniProt P55212)
T1 sequence: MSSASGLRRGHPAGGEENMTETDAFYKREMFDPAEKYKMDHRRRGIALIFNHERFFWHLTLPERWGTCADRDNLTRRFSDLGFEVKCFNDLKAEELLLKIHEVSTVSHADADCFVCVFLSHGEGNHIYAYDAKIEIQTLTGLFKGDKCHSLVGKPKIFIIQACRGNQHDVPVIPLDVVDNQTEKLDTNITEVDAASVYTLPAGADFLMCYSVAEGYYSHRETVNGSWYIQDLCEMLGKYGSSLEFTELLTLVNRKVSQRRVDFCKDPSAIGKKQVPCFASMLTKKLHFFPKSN

[2] = target: T2, recombinant Casp6-WT (from full-length human Casp6-WT-6xHis-tag-C-terminus) (human) (UniProt P55212)
T2 sequence: T1 sequence with W65R

[3] = target: T3, Casp6-WT lacking its pro-domain (∆Casp6-WT) (human) (UniProt P55212)
T3 sequence: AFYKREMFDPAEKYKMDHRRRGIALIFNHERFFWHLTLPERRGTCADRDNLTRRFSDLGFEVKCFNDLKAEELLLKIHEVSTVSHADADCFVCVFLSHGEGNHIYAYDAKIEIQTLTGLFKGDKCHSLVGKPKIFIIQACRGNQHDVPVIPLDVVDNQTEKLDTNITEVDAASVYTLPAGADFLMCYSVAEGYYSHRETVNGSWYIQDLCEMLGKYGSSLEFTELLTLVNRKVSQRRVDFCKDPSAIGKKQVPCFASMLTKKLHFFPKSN

[4] = target: co-expressed Casp6-R65W large and small subunits (human); experiment: thermal shift assay (SYPRO Orange); 10 μM Casp6 with or without 50 μM Ac-VEID-CHO, 20 mM Tris pH 8.5, 5 mM DTT, 5x SYPRO Orange, 25 to 95 °C; ΔTm = Tm with minus Tm without Ac-VEID-CHO
[5] = substrate: ΔN D179 CT version of Casp6-WT (human) (UniProt P55212); experiment: as above

B1: Ac-Val-Glu-Ile-Asp-7-Amino-4-trifluoromethylcoumarin (peptide)
peptide: Ac-VEID-{AFC}
SMILES: CC[C@H](C)[C@H](NC(=O)[C@H](CCC(=O)O)NC(=O)[C@@H](NC(C)=O)C(C)C)C(=O)N[C@@H](CC(=O)O)C(=O)Nc1ccc2c(C(F)(F)F)cc(=O)oc2c1
B1 showed a KM of Ac-VEID-AFC cleavage (Michaelis-Menten fit; 20 nM Casp6, 1-300 µM Ac-VEID-AFC) [1] of 102 µM and a KM of Ac-VEID-AFC cleavage (Michaelis-Menten fit; 20 nM Casp6, 1-300 µM Ac-VEID-AFC) [2] of 39.1 µM.

B2: recombinant proCasp6-G66R (from full-length Casp6-His) (enzyme)
chain: T1 sequence with W65R, G66R
B2 was tested, and the reduction of the VEIDase activity (40 µM Ac-VEID-AFC) of Casp3-processed ∆Casp6-WT (0.02 mg/ml) on addition of proCasp6-G66R (0.02-0.06 mg/ml, ratios 1:1 to 3:1), not dose-dependent [3] was 30%.

B3: Ac-VEID-CHO (peptide)
peptide: Ac-VEID-aldehyde
B3 was tested, and the increase of melting temperature with Ac-VEID-CHO (ΔTm) [4] was 4.6 °C and the increase of melting temperature with Ac-VEID-CHO (ΔTm) [5] was 7 °C.
